Reference: PMC10540216, “Activity Guided Azide-methyllysine Photo-trapping for Substrate Profiling of Lysine Demethylases” (Journal of the American Chemical Society, 2023)

System: KDM4A-I71AzF
Test: CASI: photo-crosslinking with HEK293T cell extracts, StrepTactin enrichment and LC-MS/MS proteomics;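 further: lysates from HEK293T cells pretreated with a KDM4 inhibitor to raise proteome methylation, affinity-purified after ±UV, gel-resolved, trypsin-digested, with exclusive unique peptides per protein averaged per condition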
Assay type: binding, human
Settings: sheet "Final results but with 0.01"

| Molecule | Fold change (+UV/-UV) |
| --- | --- |
| SF01_HUMAN (protein, UniProt Q15637 2-639, looked up) Splicing factor 1: ATGANATPLDFPSKKRKRSRWNQDTMEQKTVIPGMPTVIPPGLTREQERAYIVQLQIEDLTRKLRTGDLGIPPNPEDRSPSPEPIYNSEGKRLNTREFRTRKKLEEERHNLITEMVALNPDFKPPADYKPPATRVSDKVMIPQDEYPEINFVGLLIGPRGNTLKNIEKECNAKIMIRGKGSVKEGKVGRKDGQMLPGEDEPLHALVTANTMENVKKAVEQIRNILKQGIETPEDQNDLRKMQLRELARLNGTLREDDNRILRPWQSSETRSITNTTVCTKCGGAGHIASDCKFQRPGDPQSAQDKARMDKEYLSLMAELGEAPVPASVGSTSGPATTPLASAPRPAAPANNPPPPSLMSTTQSRPPWMNSGPSESRPYHGMHGGGPGGPGGGPHSFPHPLPSLTGGHGGHPMQHNPNGPPPPWMQPPPPPMNQGPHPPGHHGPPPMDQYLGSTPVGSGVYRLHQGKGMMPPPPMGMMPPPPPPPSGQPPPPPSGPLPPWQQQQQQPPPPPPPSSSMASSTPLPWQQNTTTTTTSAGTGSIPPWQQQQAAAAASPGAPQMQGNPTMVPLPPGVQPPLPPGAPPPPPPPPPGSAGMMYAPPPPPPPPMDPSNFVTMMGMGVAGMPPFGMPPAPPPPPPQN | 0.9 |
| FUBP2_HUMAN (protein, UniProt Q92945 2-711, looked up) Far upstream element-binding …: SDYSTGGPPPGPPPPAGGGGGAGGAGGGPPPGPPGAGDRGGGGPGGGGPGGGSAGGPSQPPGGGGPGIRKDAFADAVQRARQIAAKIGGDAATTVNNSTPDFGFGGQKRQLEDGDQPESKKLASQGDSISSQLGPIHPPPRTSMTEEYRVPDGMVGLIIGRGGEQINKIQQDSGCKVQISPDSGGLPERSVSLTGAPESVQKAKMMLDDIVSRGRGGPPGQFHDNANGGQNGTVQEIMIPAGKAGLVIGKGGETIKQLQERAGVKMILIQDGSQNTNVDKPLRIIGDPYKVQQACEMVMDILRERDQGGFGDRNEYGSRIGGGIDVPVPRHSVGVVIGRSGEMIKKIQNDAGVRIQFKQDDGTGPEKIAHIMGPPDRCEHAARIINDLLQSLRSGPPGPPGGPGMPPGGRGRGRGQGNWGPPGGEMTFSIPTHKCGLVIGRGGENVKAINQQTGAFVEISRQLPPNGDPNFKLFIIRGSPQQIDHAKQLIEEKIEGPLCPVGPGPGGPGPAGPMGPFNPGPFNQGPPGAPPHAGGPPPHQYPPQGWGNTYPQWQPPAPHDPSKAAAAAADPNAAWAAYYSHYYQQPPGPVPGPAPAPAAPPAQGEPPQPPPTGQSDYTKAWEEYYKKIGQQPQQPGAPPQQDYTKAWEEYYKKQAQVATGGGPGAPPGSQPDYSAAWAEYYRQQAAYYGQTPGPGGPQPPPTQQGQQQAQ | 1.125 |
| PLOD3_HUMAN (protein, UniProt O60568 25-738, looked up) Multifunctional procollagen …: SDRPRGRDPVNPEKLLVITVATAETEGYLRFLRSAEFFNYTVRTLGLGEEWRGGDVARTVGGGQKVRWLKKEMEKYADREDMIIMFVDSYDVILAGSPTELLKKFVQSGSRLLFSAESFCWPEWGLAEQYPEVGTGKRFLNSGGFIGFATTIHQIVRQWKYKDDDDDQLFYTRLYLDPGLREKLSLNLDHKSRIFQNLNGALDEVVLKFDRNRVRIRNVAYDTLPIVVHGNGPTKLQLNYLGNYVPNGWTPEGGCGFCNQDRRTLPGGQPPPRVFLAVFVEQPTPFLPRFLQRLLLLDYPPDRVTLFLHNNEVFHEPHIADSWPQLQDHFSAVKLVGPEEALSPGEARDMAMDLCRQDPECEFYFSLDADAVLTNLQTLRILIEENRKVIAPMLSRHGKLWSNFWGALSPDEYYARSEDYVELVQRKRVGVWNVPYISQAYVIRGDTLRMELPQRDVFSGSDTDPDMAFCKSFRDKGIFLHLSNQHEFGRLLATSRYDTEHLHPDLWQIFDNPVDWKEQYIHENYSRALEGEGIVEQPCPDVYWFPLLSEQMCDELVAEMEHYGQWSGGRHEDSRLAGGYENVPTVDIHMKQVGYEDQWLQLLRTYVGPMTESLFPGYHTKARAVMNFVVRYRPDEQPSLRPHHDSSTFTLNVALNHKGLDYEGGGCRFLRYDCVISSPRKGWALLHPGRLTHYHEGLPTTWGTRYIMVSFVDP | 0 |
| CMTR1_HUMAN (protein, UniProt Q8N1G2 1-835, looked up) Cap-specific mRNA …: MKRRTDPECTAPIKKQKKRVAELALSLSSTSDDEPPSSVSHGAKASTTSLSGSDSETEGKQHSSDSFDDAFKADSLVEGTSSRYSMYNSVSQKLMAKMGFREGEGLGKYSQGRKDIVEASSQKGRRGLGLTLRGFDQELNVDWRDEPEPSACEQVSWFPECTTEIPDTQEMSDWMVVGKRKMIIEDETEFCGEELLHSVLQCKSVFDVLDGEEMRRARTRANPYEMIRGVFFLNRAAMKMANMDFVFDRMFTNPRDSYGKPLVKDREAELLYFADVCAGPGGFSEYVLWRKKWHAKGFGMTLKGPNDFKLEDFYSASSELFEPYYGEGGIDGDGDITRPENISAFRNFVLDNTDRKGVHFLMADGGFSVEGQENLQEILSKQLLLCQFLMALSIVRTGGHFICKTFDLFTPFSVGLVYLLYCCFERVCLFKPITSRPANSERYVVCKGLKVGIDDVRDYLFAVNIKLNQLRNTDSDVNLVVPLEVIKGDHEFTDYMIRSNESHCSLQIKALAKIHAFVQDTTLSEPRQAEIRKECLRLWGIPDQARVAPSSSDPKSKFFELIQGTEIDIFSYKPTLLTSKTLEKIRPVFDYRCMVSGSEQKFLIGLGKSQIYTWDGRQSDRWIKLDLKTELPRDTLLSVEIVHELKGEGKAQRKISAIHILDVLVLNGTDVREQHFNQRIQLAEKFVKAVSKPSRPDMNPIRVKEVYRLEEMEKIFVRLEMKIIKGSSGTPKLSYTGRDDRHFVPMGLYIVRTVNEPWTMGFSKSFKKKFFYNKKTKDSTFDLPADSIAPFHICYYGRLFWEWGDGIRVHDSQKPQDQDKLSKEDVLSFIQMHRA | 3 |
| MCM4_HUMAN (protein, UniProt P33991 2-863, looked up) DNA replication licensing …: SSPASTPSRRGSRRGRATPAQTPRSEDARSSPSQRRRGEDSTSTGELQPMPTSPGVDLQSPAAQDVLFSSPPQMHSSAIPLDFDVSSPLTYGTPSSRVEGTPRSGVRGTPVRQRPDLGSAQKGLQVDLQSDGAAAEDIVASEQSLGQKLVIWGTDVNVAACKENFQRFLQRFIDPLAKEEENVGIDITEPLYMQRLGEINVIGEPFLNVNCEHIKSFDKNLYRQLISYPQEVIPTFDMAVNEIFFDRYPDSILEHQIQVRPFNALKTKNMRNLNPEDIDQLITISGMVIRTSQLIPEMQEAFFQCQVCAHTTRVEMDRGRIAEPSVCGRCHTTHSMALIHNRSLFSDKQMIKLQESPEDMPAGQTPHTVILFAHNDLVDKVQPGDRVNVTGIYRAVPIRVNPRVSNVKSVYKTHIDVIHYRKTDAKRLHGLDEEAEQKLFSEKRVELLKELSRKPDIYERLASALAPSIYEHEDIKKGILLQLFGGTRKDFSHTGRGKFRAEINILLCGDPGTSKSQLLQYVYNLVPRGQYTSGKGSSAVGLTAYVMKDPETRQLVLQTGALVLSDNGICCIDEFDKMNESTRSVLHEVMEQQTLSIAKAGIICQLNARTSVLAAANPIESQWNPKKTTIENIQLPHTLLSRFDLIFLLLDPQDEAYDRRLAHHLVALYYQSEEQAEEELLDMAVLKDYIAYAHSTIMPRLSEEASQALIEAYVDMRKIGSSRGMVSAYPRQLESLIRLAEAHAKVRLSNKVEAIDVEEAKRLHREALKQSATDPRTGIVDISILTTGMSATSRKRKEELAEALKKLILSKGKTPALKYQQLFEDIRGQSDIAITKDMFEEALRALADDDFLTVTGKTVRLL | 0.5 |
| GCSP_HUMAN (protein, UniProt P23378 36-1020, looked up) Glycine dehydrogenase …: DSSSGGGDSAAAGASRLLERLLPRHDDFARRHIGPGDKDQREMLQTLGLASIDELIEKTVPANIRLKRPLKMEDPVCENEILATLHAISSKNQIWRSYIGMGYYNCSVPQTILRNLLENSGWITQYTPYQPEVSQGRLESLLNYQTMVCDITGLDMANASLLDEGTAAAEALQLCYRHNKRRKFLVDPRCHPQTIAVVQTRAKYTGVLTELKLPCEMDFSGKDVSGVLFQYPDTEGKVEDFTELVERAHQSGSLACCATDLLALCILRPPGEFGVDIALGSSQRFGVPLGYGGPHAAFFAVRESLVRMMPGRMVGVTRDATGKEVYRLALQTREQHIRRDKATSNICTAQALLANMAAMFAIYHGSHGLEHIARRVHNATLILSEGLKRAGHQLQHDLFFDTLKIQCGCSVKEVLGRAAQRQINFRLFEDGTLGISLDETVNEKDLDDLLWIFGCESSAELVAESMGEECRGIPGSVFKRTSPFLTHQVFNSYHSETNIVRYMKKLENKDISLVHSMIPLGSCTMKLNSSSELAPITWKEFANIHPFVPLDQAQGYQQLFRELEKDLCELTGYDQVCFQPNSGAQGEYAGLATIRAYLNQKGEGHRTVCLIPKSAHGTNPASAHMAGMKIQPVEVDKYGNIDAVHLKAMVDKHKENLAAIMITYPSTNGVFEENISDVCDLIHQHGGQVYLDGANMNAQVGICRPGDFGSDVSHLNLHKTFCIPHGGGGPGMGPIGVKKHLAPFLPNHPVISLKRNEDACPVGTVSAAPWGSSSILPISWAYIKMMGGKGLKQATETAILNANYMAKRLETHYRILFRGARGYVGHEFILDTRPFKKSANIEAVDVAKRLQDYGFHAPTMSWPVAGTLMVEPTESEDKAELDRFCDAMISIRQEIADIEEGRIDPRVNPLKMSPHSLTCVTSSHWDRPYSREVAAFPLPFVKPENKFWPTIARIDDIYGDQHLVCTCPPMEVYESPFSEQKRASS | 6 |
| SEPT9_HUMAN (protein, UniProt Q9UHD8 1-586, looked up) Septin-9: MKKSYSGGTRTSSGRLRRLGDSSGPALKRSFEVEEVETPNSTPPRRVQTPLLRATVASSTQKFQDLGVKNSEPSARHVDSLSQRSPKASLRRVELSGPKAAEPVSRRTELSIDISSKQVENAGAIGPSRFGLKRAEVLGHKTPEPAPRRTEITIVKPQESAHRRMEPPASKVPEVPTAPATDAAPKRVEIQMPKPAEAPTAPSPAQTLENSEPAPVSQLQSRLEPKPQPPVAEATPRSQEATEAAPSCVGDMADTPRDAGLKQAPASRNEKAPVDFGYVGIDSILEQMRRKAMKQGFEFNIMVVGQSGLGKSTLINTLFKSKISRKSVQPTSEERIPKTIEIKSITHDIEEKGVRMKLTVIDTPGFGDHINNENCWQPIMKFINDQYEKYLQEEVNINRKKRIPDTRVHCCLYFIPATGHSLRPLDIEFMKRLSKVVNIVPVIAKADTLTLEERVHFKQRITADLLSNGIDVYPQKEFDEDSEDRLVNEKFREMIPFAVVGSDHEYQVNGKRILGRKTKWGTIEVENTTHCEFAYLRDLLIRTHMQNIKDITSSIHFEAYRVKRLNEGSSAMANGMEEKEPEAPEM | 0.6667 |
